In general, EC50 (read off the curve) refers to the concentration at which the effect is half-maximal. As usually defined, the EC50 is the concentration needed to bring the measured effect to its halfway point. Read a low EC50 as an effect from little substance. The Kd is the equilibrium constant for the complex coming apart.

Bounds are passed on as bounds.

For assay [1], the target named is T1, human BCMA expressed on cells (human, UniProt Q02223 1-184).
T1 construct: the cell line is named under assay; also called wildtype human BCMA
T1 sequence: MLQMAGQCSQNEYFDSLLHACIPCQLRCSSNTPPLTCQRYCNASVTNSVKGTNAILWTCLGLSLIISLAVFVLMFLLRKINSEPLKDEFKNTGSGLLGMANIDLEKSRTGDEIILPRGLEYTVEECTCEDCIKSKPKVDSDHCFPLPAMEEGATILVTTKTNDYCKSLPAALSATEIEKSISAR
The assay can be described thus: flow cytometry, H929 cells (BCMA-expressing). (In general: A flow cytometer gives signals particle by particle.)

Assay [2] concerns the target T2, His-tagged human BCMA (Acro Biosystems, Cat. #BCA-H522y) (human, UniProt Q02223 1-54).
T2 construct: also called huBCMA; P1; not shown: His tag
T2 sequence: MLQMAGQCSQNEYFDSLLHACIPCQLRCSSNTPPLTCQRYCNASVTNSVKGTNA
The assay can be described thus: ELISA, coated His-tagged human BCMA. Background: In an ELISA, binding on a coated surface is turned into a signal by an enzyme label.

Assay [3] has as its target T3, Human HER3-His (Sino Biological, 10201-H08H) (human, UniProt P21860 20-643).
T3 construct: Specificity control; also called Human HERS-His
Description: ELISA, coated Human HER3-His.

The target of assay [4] is T1, human BCMA expressed on cells. Description: flow cytometry, fixed RPMI 8226 cells (BCMA+, TACI+: the cells carry both targets).
The target in assay [5] is T4, cynomolgous macaque BCMA expressed on CHOK1 cells.
T4 construct: also called cyno BCMA on cells
Description: flow cytometry, CHOK1 cells transiently expressing cynomolgus BCMA.

A further assay deals with T5, BCMA Mut (human, UniProt Q02223 1-184).
T5 construct: Expressed on HEK293T cells; also called human BCMA comprising the substitutions Y13A, D15A, L17G and L18G
T5 chain: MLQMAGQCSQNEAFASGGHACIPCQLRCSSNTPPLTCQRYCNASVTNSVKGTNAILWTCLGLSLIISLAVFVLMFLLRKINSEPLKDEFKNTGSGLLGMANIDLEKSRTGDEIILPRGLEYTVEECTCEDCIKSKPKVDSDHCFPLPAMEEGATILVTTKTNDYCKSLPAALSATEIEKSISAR
Description: flow cytometry on HEK293T cells expressing BCMA Mut.

The target in assay [6] is T2, His-tagged human BCMA (Acro Biosystems, …). Description: BLI, His-tagged human BCMA on HIS1K tip.
For assay [7] the target is unchanged. Description: ELISA, coated His-tagged human BCMA. The source holds these as a separate data set.
For assay [8], the target named is T6, human TACI expressed on cells (human, UniProt O14836 1-293).
T6 construct: also called wildtype human TACI
T6 sequence: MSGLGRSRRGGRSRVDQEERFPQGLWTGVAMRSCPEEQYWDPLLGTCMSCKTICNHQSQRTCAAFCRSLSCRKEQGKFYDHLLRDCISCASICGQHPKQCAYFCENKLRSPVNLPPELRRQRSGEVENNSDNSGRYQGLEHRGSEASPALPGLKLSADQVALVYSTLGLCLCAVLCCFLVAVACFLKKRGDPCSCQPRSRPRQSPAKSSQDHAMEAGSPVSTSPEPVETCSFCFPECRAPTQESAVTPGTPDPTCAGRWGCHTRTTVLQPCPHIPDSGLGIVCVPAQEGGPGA
The assay can be described thus: flow cytometry, HEK 293 cells transiently expressing human TACI.

In assay [9] the target is T7, His-tagged cynomolgous macaque BCMA (Acro Biosystems, BCA-C52H7) (cynomolgus macaque, UniProt Q02223 1-54 (human entry)).
T7 construct: Bought protein; also called cyno BCMA; CyBCMA; not shown: His tag
The assay can be described thus: BLI, His-tagged cynomolgus BCMA on HIS1K tip. In general terms: In BLI a coated tip is dipped into the sample, and binding shifts an interference pattern.

For assay [10], the target named is T1, human BCMA expressed on cells. Description: flow cytometry, H929 cells (BCMA+).
For assay [11] the target is unchanged. Description: flow cytometry, HEK 293 cells expressing human BCMA.
The target in assay [12] is T8, Human BCMA-His (Sino Biological, 10620-H08H) (human, UniProt Q02223 1-54).
T8 construct: not shown: His tag
T8 sequence: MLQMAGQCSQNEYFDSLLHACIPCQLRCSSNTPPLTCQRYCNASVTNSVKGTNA
The assay can be described thus: ELISA, coated Human BCMA-His.

Assay [13] has as its target T9, His-tagged mouse BCMA (Acro Biosystems, BCA-M52H3) (mouse, UniProt O88472 1-49).
T9 construct: Bought protein; not shown: His tag
T9 chain: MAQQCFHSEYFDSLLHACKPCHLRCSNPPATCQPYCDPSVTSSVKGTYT
Description: BLI, His-tagged mouse BCMA on HIS1K tip.

For assay [14], the target named is T10, recombinant his-tagged human TACI (Sinobiological cat #11937-H08H) (human, UniProt O14836 1-165).
T10 construct: Bought protein; also called Human TACI-His; huTACI; not shown: His tag
T10 sequence: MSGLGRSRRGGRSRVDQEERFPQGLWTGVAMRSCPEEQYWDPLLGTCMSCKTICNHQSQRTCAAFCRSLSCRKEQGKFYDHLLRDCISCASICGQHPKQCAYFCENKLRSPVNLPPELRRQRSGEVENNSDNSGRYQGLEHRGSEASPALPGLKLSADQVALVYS
Description: ELISA, coated His-tagged human TACI.

Assay [15] deals with T7, His-tagged cynomolgous macaque BCMA …. The assay can be described thus: BLI, His-tagged cynomolgus BCMA on HIS1K tip; R2 0.9963.
The target in assay [16] is T2, His-tagged human BCMA (Acro Biosystems, …). The assay can be described thus: BLI, His-tagged human BCMA on HIS1K tip; R2 0.9957.
For assay [17] the target is unchanged. Description: competition ELISA: His-tagged human BCMA binding to coated APRIL-Fc in the presence of the antibody.

B1: J6M0 (antibody, V domains shown)
VH: QVQLVQSGAEVKKPGSSVKVSCKASGGTFSNYWMHWVRQAPGQGLEWMGATYRGHSDTYYNQKFKGRVTITADKSTSTAYMELSSLRSEDTAVYYCARGAIYDGYDVLDNWGQGTLVTVSS
VL: DIQMTQSPSSLSASVGDRVTITCSASQDISNYLNWYQQKPGKAPKLLIYYTSNLHSGVPSRFSGSGSGTDFTLTISSLQPEDFATYYCQQYRKLPWTFGQGTKLEIK
notes: also called J6M0-hIgG1; anti-BCMA
As for B1, the figures for the 50% effective concentration (EC50 (read off the curve)) in assay [1] and in [2] were ~1 µg/mL and ~0.007 µg/mL, respectively. Moreover, the binding result in assay [3] is reported as “no binding (tested: log M about -7.7 (3 ug/ml per paragraph 742))”; in [5], “binds”; with BCMA Mut, “binds”; in [8], “no binding (tested: 10 ug/ml)”; in assay [14], “no binding (tested: 10 ug/ml)”. The concentration for a half-maximal effect (EC50) is ~9.61 nM in assay [4]; 0.044 nM in [7]; 1.77 nM in assay [10]; 10.1 nM in assay [11]; 0.018 nM in assay [12]. For the same molecule, in assay [6], the “Human BCMA response” value worked out at 2.53. Moreover, the “Cyno BCMA response” value in assay [9] was found to be 2.16. For the same molecule, the “Mouse BCMA response” value in assay [13] was determined as 0.0423. For the same molecule, the Kd in assay [15] and in [16] was < 0.001 nM throughout. The “IC50 (read off the curve)” value in assay [17] is ~0.5 µg/mL.

Values taken from patent US20230374147A1 (HUMMINGBIRD BIOSCIENCE PTE, published 2023).
